Data reported in paper PMC10720262 (2023).

target: PfCSP full length (Plasmodium falciparum (isolate NF54), UniProt P19597); assay: ELISA AUC
Sequence (P19597 20-375): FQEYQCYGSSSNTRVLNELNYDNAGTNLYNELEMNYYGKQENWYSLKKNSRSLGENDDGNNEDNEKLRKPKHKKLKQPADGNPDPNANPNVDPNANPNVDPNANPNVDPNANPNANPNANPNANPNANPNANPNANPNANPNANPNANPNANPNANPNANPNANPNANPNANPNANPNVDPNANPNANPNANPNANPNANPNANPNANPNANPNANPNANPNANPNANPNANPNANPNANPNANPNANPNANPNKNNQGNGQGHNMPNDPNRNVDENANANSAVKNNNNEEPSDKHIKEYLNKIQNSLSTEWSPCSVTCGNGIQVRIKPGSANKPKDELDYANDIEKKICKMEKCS

Binder | binding score
CL-445901 (antibody, V domains shown, peptides N-terminally acetylated and C-terminally amidated) VH: QVQLVESGGGVVQPGRSLRLSCAASGFTFSNYGIHWVRQAPGKGLEWVALIWFNGNNKFYADSVEGRFTVSRDNSKNTLYLQLNSLRAEDTAVYYCARAYYFASGNYMDYWGQGTLVTVSS VL: DIQMTQSPSSVSASMGDRVTITCRASQDISSSLAWYQQKPGKAPILLISFASSLHSGVPSRFSGSGSGTDFTLTISSLQPEDFATYSCQQANSFPWTFGQGTRVEVK | 2.4
Ky311 (antibody, V domains shown, peptides N-terminally acetylated and C-terminally amidated) VH: QMHLVESGGGVVQPGRSLRLSCVASGFTFNNHGMHWVRQAPGKGLEWVAVIWHDGSNKFYADSVNGRFIVSRDNSKNTLYLHMNSLRAEDTAVYYCARDFFVSGSYNYFDPWGQGTLVTVSS VL: EIVLTQSPVTLSLSPGERATLSCRASQSVSNYLAWYQQKPGQAPRLLIYDAANRATGTPARFSGSGSGTDFTLTISSLEPEDFAVYFCQQRSKWFTFGPGTKLDIK | 2.22
CL-510427 (antibody, V domains shown, peptides N-terminally acetylated and C-terminally amidated) VH: QVQLVESGGGVVQPGRSLRLSCAASGFTFSNYGMHWVRQAPGKGLEWVAVIWYDGSKEDYADSVKGRLTISRDNSKNTLYLQMNSLRAEDTAVYYCARDGDSRGWYAFDYWGQGTLVTVSS VL: not shown | 2.39
CL-510433 (antibody, V domains shown, peptides N-terminally acetylated and C-terminally amidated) VH: QVQLVESGGGVVQPGRSLRLSCVASGFTFSSYGMHWVRQAPGKGLEWVAVIWYDGSNKYYADSVKGRFTVSRDNSKNTLYLQMNSLRAEDTAVYYCARVYYYGSGSYSPYYYALDVWGHGTTVTVSS VL: EIVMTQSPATLSVSPGERATLSCRASQSISSNLAWYQQKPGQAPRLLIYGASIRATGIPARFSGSGSGTEFTLSISILQSEDFAIYYCQQYNNWWTFGQGTKVEIK | 1.76
CL-453181 (antibody, V domains shown, peptides N-terminally acetylated and C-terminally amidated) VH: QVQLVESGGGVVQPGRSLRLSCAASGFTFSYYGMHWVRQAPGKGLEWVSIIWYDGSNKFYADSVKGRFTISRDNSKDTLYLEMNSLRAEDTAVYYCARVEFYNGSGRDFYYGLDVWGQGTTVTVSS VL: EIVMTQSPATLSVSPGEGATLSCRASQSVSSNLAWYQQKPGQAPRLLISGASTRATGVPARFSGSGSGTEFALTISSLQSEDFAVYYCQQYSKLWTFGQGTKVEIK | 2.6
CL-458015 (antibody, V domains shown, peptides N-terminally acetylated and C-terminally amidated) VH: QVHLVESGGGVVQPGRSLRLSCAASGFTFSNYGMHWVRQAPGKGLDWVAIIWYDGSNKFYADSVQGRFTISRDNSKNTLYLQMNSLRAEDTAVYYCAKVQDLLGVPSTLGDHYTTDVWGQGTSVTVSS VL: DIQMTQSPSTLSASVGDRITITCRASQSINDWLAWYQQKAGKAPKLLIYKASSLESGVPSRFSGSGSGTDFTLTISSLQTDDFAIYYCQQYNHYWTFGQGTKVEIK | 2.2
Ky230 (antibody, V domains shown, peptides N-terminally acetylated and C-terminally amidated) VH: QVQLVESGGGVVQPGRSLRLSCAASGFTFSDYGMHWVRQAPGKGLEWVAIIWHDGSNKYYVDSVKGRFTISRDNSKNTLYLQMNSLRAEDTAVYYCARAASSFGSGFDYWGQGTLVTVSS VL: DVVMTQSPLSLPVTLGQPASIFCRSSQSLVYSDGNTYLNWFQRRPGQSPRRLIYKVSDRDSGVPDRFSGSGSGTDFTLQISRVEAEDVGVYYCMQGTHWPPTFGQGTKVEIK | 2.4
CL-462788 (antibody, V domains shown, peptides N-terminally acetylated and C-terminally amidated) VH: QVQLVESGGGVVQPGRSLRLSCAASGFTFRNYGMHWVRQAPGKGLEWVAIIWYDGSYKFYADSVKGRFTISRDNSKNTLYLQMNSLRAEDTAMYYCARDDALELRSFDIWGQGTMVTVSS VL: DVVMTQSPLSLPVTLGQPASISCRSSQSLVYSDENTYLSWFQQRPGQSPRRLIYKISNRDSGVPDRFSGSGSGTDFTLKISRVEAEDVGVYYCMQGTHWPRTFGQGTEVEIK | 2.3
CL-459075 (antibody, V domains shown, peptides N-terminally acetylated and C-terminally amidated) VH: QVQLVASGGGVVQPGRSLRLSCAASGFTFSNYGMHWVRQAPGKGLEWVSIIWYDGSKKYYSDSVKGRFTISRDNSKNTLYLQMNSLRAEDTAVYYCARAYGSGSYSDDYYGMDVWGQGTTVTVSS VL: DIQMTQSPSTLSASVGDRVTITCRASQSISTWLAWCQQKPGKAPKLLIYKASNLESGVPSRFSGSGSGTEFTLTISSLQPDDFATYYCQQYYSYWTFGQGTKVEIK | 2.5
CL-511296 (antibody, V domains shown, peptides N-terminally acetylated and C-terminally amidated) VH: QVQLVASGGGVVQPGRSQRLSCAASGFTFSNYGMHWVRQSPGRGLEWVAIIWYDGSNKFYADSVKGRFTISRDNSRNTLFLQMNSLRAEDTAIYYCAKSEERTSDNYFKYGMDVWGQGTTVIVST VL: DIQMTQSPSTLSASVGDRVTITCRASQSISSWLAWYQQKPGKAPKLLIYKASNLESGVPSRFSGSGSGTEFTLSISNLQPDDFATYFCQQYTSYWTFGQGTKVEIK | 2.34
CL-511026 (antibody, V domains shown, peptides N-terminally acetylated and C-terminally amidated) VH: QVQLVESGGGVVQPGRSLRLSCAASGFTFSNFGMHWVRQAPDRGLEWVSIIWYDGSNKFYADSVKGRFTISRDNSKNTLFLQMDSLRAEDTAVYYCAKAEMRTSDYYNYGMDVWGQGTTVTVSS VL: DIQMTQSPSTLSASVGDRVTITCRASQSISSWLAWYQQKPGKAPKLLIYKASSLESGVPSRFSGSGSATEFTLTIRSLQPDDFATYYCQQYYSYWTFGQGTKVEIN | 2.08
CL-512319 (antibody, V domains shown, peptides N-terminally acetylated and C-terminally amidated) VH: QVQLVESGGGVVQPGRSLRLSCAASGFTFSNFGMHWVRQAPGKGLEWVAVIWYDGSHKFYADSLKGRFTISRDNSKNTLYLQMNNLRAEDTAVYYCARAHPVTTDYDKYGMDVWGQGTTVTVSS VL: DIQMTQSPSTLSSSVGDRVTITCRASQSISIWLAWIQQKPGKAPKLLIYKASSLESGVPSRFSGSGSGTEFTLTISSLQPDDFATYYCQQFYSYWTFGLGTKVEIK | 2.08
CL-447563 (antibody, V domains shown, peptides N-terminally acetylated and C-terminally amidated) VH: QVQLVASGGGVVQPGRSLRLSCAASGFTFSNYGMHWVRQAPGKGLEWVAIIWYDGSKKYYSDSVKGRFTISRDNSKNTLYLQMNSLRAEDTAVYYCARAYGSGSYSDDYYGMDVWGQGTTVTVSS VL: DIQMTQSPSTLSASVGDRVTITCRASQSISTWLAWYQQKPGKAPKLLIYKASNLESGVPSRFSGSGSGTEFTLTISSLQPDDFATYYCQQYYSYWTFGQGTKVEIK | 2.5
CL-508758 (antibody, V domains shown, peptides N-terminally acetylated and C-terminally amidated) VH: QVQLVESGGGVVQPGRSLRLSCAASGFTFSNYGMHWVRQTPGRDLEWVAIIWYDGSYKFYADSVKGRFSISRDNSKNTLNLEMKSLRVEDTAVYYCAKAYDTSSDDKYGMDVWGQGTTVTVTS VL: DIQMTQSPSTLSASVGDRVTITCRASQSISIWLAWYQQKPGKAPKLLIYRASDLESGVPSRFSGSGSGTGFTLTISSLQPDDFATYYCQQYNSYWTFGQGTKVEIK | 2.17
CL-513069 (antibody, V domains shown, peptides N-terminally acetylated and C-terminally amidated) VH: QVQLVESGGGVVQPGKSLRLSCEASGFTFSNYGMHWVRQAPGKGLDWVAIIWHDGGNKFYADSVRGRFTISRDNSKNTLFLQMNSLRAEDSAVYYCARVFDFRDSCYTMDVWGQGTTVTVSS VL: DIQMTQSPSTLSASVGDRVTITCRASQSISSWLAWYQQKPGKAPKLLIYKASSLESGVPSRFSGSGSGTEFSLTISSLQPDDFATYYCQQYTRYWTFGQGTRVEIQ | 2.2
CL-437492 (antibody, V domains shown, peptides N-terminally acetylated and C-terminally amidated) VH: QEQLVESGGGVVQPGNSLRLSCVASGFTFSNHGMHWVRQAPGKGLEWVAIIWYDGSQKFYSDSVKGRFTISRDNSKNTLYLQMNSLRAEDTAIYYCARVDWSGNDWGWFDPWGQGTLVTVSS VL: EIVLTQSPDTLSLSPGERATLSCRASQTLSSRHLAWYQQKPGQAPRLLIYGASSRATGIPDRFSGSGSGTDFTLTINRLEPEDFAVFYCQQYGRLWTFGQGTKVEIK | 2.2
CL-512508 (antibody, V domains shown, peptides N-terminally acetylated and C-terminally amidated) VH: QVQLVESGGGVVQPGTSLRLSCGASGFTFSSYGMHWVRQAPGKGLEWVAIIWYDGNNKYYADSVKGRFTISRDNSKNTLYLQMNSLRAEDTAVYYCAKVGQFSTSSWGAFDIWGQGTMVTVSS VL: EIVLTQSPGTLPLSPGERATLSCRASQSVSSSQLAWYQQKPGQAPRLLIYGASSRATAIPDRFSGSGSGTDFTLTISRLEPEDFAVYYCQQYSRLWTFGQGTKVEIK | 2.01
CL-509880 (antibody, V domains shown, peptides N-terminally acetylated and C-terminally amidated) VH: QVQLVESGGGVVQPGRSLRLSCAASGFTFSNSGMHWVRQAPGKGLEWVAVIWYDGSNKYYADSVKGRFTVTRDNSKNTLYLQMNSLRAEDTAVYYCVRAYYGSGSYHFKYGMDVWGQGTTVTVSS VL: not shown | 1.97
CL-460619 (antibody, V domains shown, peptides N-terminally acetylated and C-terminally amidated) VH: QVQLVESGGGVVQPGRSLRLSCAASGFTFDYYGMHWVRQAPGKGLEGVAIIWYDGSNKFYADSVKGRFTISRDNSKNTLYLQMTSLRVEDTAVYYCARDGRIGDPGPYFDYWGQGTLVTVSS VL: EIVMTQSPATLSVSPGERPTLSCRASQSVSSKLAWYQQKPDQAPRLLIYGASTRATGIPPRFSGSGSGTEFTLTIDSLQSEDFAVYYCQQYHKWWTFGQGTKVEIK | 2.2
CL-512191 (antibody, V domains shown, peptides N-terminally acetylated and C-terminally amidated) VH: QVQLVESGGGVVQPGRSLRLSCAASGFTFSNYAMHWVRQAPGKGLEWVAVIWYDGSNKYYADSVKGRFTISRDDSKNTLYLQMNSLRAEDTAVYYCARDKGYRYGFNWFDPWGQGTLVTVSS VL: QSVLTQPPSVSGAPGQRVTISCTGSSSNIGAGYDVHWYQKLPGTAPKLLIFSNSNRPSGVPDRFSGSKSGTSASLAITGLQAEDEADYYCQSYDSSLSGSRVFGGGTKLTVL | 2.31
CL-509326 (antibody, V domains shown, peptides N-terminally acetylated and C-terminally amidated) VH: QVYLVESGEGVVQPGRSLRLSCAASGFTFSNYGMHWVRQAPGKGLEWVAVIWYNGNNKFYADSVKGRFTISRDNSKNTLFLQMNSLRAEDTAVYFCARSGYSRSSYFDYWGQGTLVTVSS VL: QSVLTQPPSVSGAPGQRVTISCTGSSSNIGAVYDVHWYQQLPGTAPKLLIYGNTNRPSGVPDRFSGSQSGTSASLAITGLQAEDEADYYCQSYDSSLSGSVFGGGTKLTVL | 2.19
CL-512023 (antibody, V domains shown, peptides N-terminally acetylated and C-terminally amidated) VH: QVQLMESGGGVVQPGRSLRLSCEASGFTFSNSGMHWVRQAPGKGLEWVAIIWYDGSNRYYVDSVKGRFTISRDNSKNTLYLQMNSLRAEDTAVYYCARDGGNRYGYGWFDSWGQGTLVTVSS VL: QSVLTQPPSVSGAPGQRVTISCTGSSSNIGAGYDVHWYQQLPGTAPKLLIYGNTNRPSGVPDRFSGSKSGTSASLAITGLQAEDEADYYCQSYDSSLGGSRRVFGGGTKLTVL | 2.59
CL-449759 (antibody, V domains shown, peptides N-terminally acetylated and C-terminally amidated) VH: QVHLVESGGGVVQPGESQRLSCAASGFTFSNYGMHWVRQAPGKGLEWVALIWYDGSNKFYADSVKGRFTISRDNSKNTLYLHMNSLRAEDTAMYYCAKVPNWNDDKYTMDVWGQGTTVTVTS VL: not shown | 2.4
